This test addresses E. coli 3'-phosphoadenosine 5'-phosphosulfate (PAPS) reductase (E. coli) (UniProt P17854).

In PMC5947528 one finds kcat Km^-1 of PR with the redoxin, percent of that with E. coli Trx1, Km of PR for the redoxin as electron donor (PAPS reductase assay) and Vmax of PR with the redoxin as electron donor (PAPS reductase assay) data, which are given here for five molecules.

UniProt P17854, sequence (P17854 whole entry): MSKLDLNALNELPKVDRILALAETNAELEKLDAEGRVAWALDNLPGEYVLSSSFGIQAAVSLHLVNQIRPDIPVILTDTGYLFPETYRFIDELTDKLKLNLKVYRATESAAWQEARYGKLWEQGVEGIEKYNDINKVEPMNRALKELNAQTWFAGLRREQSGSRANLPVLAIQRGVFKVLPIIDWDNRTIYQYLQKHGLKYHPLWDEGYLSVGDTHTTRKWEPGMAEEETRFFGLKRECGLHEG

B1: human Trx1 (enzyme)
chain: MVKQIESKTAFQEALDAAGDKLVVVDFSATWCGPCKMIKPFFHSLSEKYSNVIFLEVDVDDCQDVASECEVKCMPTFQFFKKGQKVGEFSGANKEKLEATINELV
In the case of B1, the kcat Km^-1 of PR with the redoxin, percent of that with E. coli Trx1 was 59%.

B2: Arabidopsis thaliana TrxH3 (enzyme)
chain: MAAEGEVIACHTVEDWTEKLKAANESKKLIVIDFTATWCPPCRFIAPVFADLAKKHLDVVFFKVDVDELNTVAEEFKVQAMPTFIFMKEGEIKETVVGAAKEEIIANLEKHKTVVAAA
Take B2: the Km of PR for the redoxin as electron donor (PAPS reductase assay) was determined as 17.8 µM; the Vmax of PR with the redoxin as electron donor (PAPS reductase assay) came to 13.2 U mg^-1; the kcat Km^-1 of PR with the redoxin, percent of that with E. coli Trx1 came out at 154%.

B3: Arabidopsis thaliana TrxH4 (enzyme)
chain: MAAEEGQVIGCHTNDVWTVQLDKAKESNKLIVIDFTASWCPPCRMIAPIFNDLAKKFMSSAIFFKVDVDELQSVAKEFGVEAMPTFVFIKAGEVVDKLVGANKEDLQAKIVKHTGVTTA
Consider B3, for which the Km of PR for the redoxin as electron donor (PAPS reductase assay) turned out to be 26.1 µM.

B4: Arabidopsis thaliana TrxH1 (enzyme)
chain: MASEEGQVIACHTVETWNEQLQKANESKTLVVVDFTASWCGPCRFIAPFFADLAKKLPNVLFLKVDTDELKSVASDWAIQAMPTFMFLKEGKILDKVVGAKKDELQSTIAKHLA
In the case of B4, the kcat Km^-1 of PR with the redoxin, percent of that with E. coli Trx1 is 18%.

B5: Arabidopsis thaliana TrxH2 (enzyme)
chain: MGGALSTVFGSGEDATAAGTESEPSRVLKFSSSARWQLHFNEIKESNKLLVVDFSASWCGPCRMIEPAIHAMADKFNDVDFVKLDVDELPDVAKEFNVTAMPTFVLVKRGKEIERIIGAKKDELEKKVSKLRA
As for B5, the Km of PR for the redoxin as electron donor (PAPS reductase assay) stood at 43.1 µM and the kcat Km^-1 of PR with the redoxin, percent of that with E. coli Trx1 is 23%.
